Key:
[1] = target: T1, human APC-PPACK (active site-blocked APC) (human, UniProt P04070 43-461, active site bound by the tripeptide inhibitor Phe-Pro-Arg-chloromethylketone (PPACK)); test: ELISA
T1 construct: Bought (Haematologic Technologies)

[2] = target: T2, human protein C (PC) zymogen (human, UniProt P04070 43-197; P04070 200-461); test: ELISA screen, PC-coated wells, OD450, n=2 [Continued]
T2 construct: Bought
T2 sequence (P04070 43-197, chain 1 of 2): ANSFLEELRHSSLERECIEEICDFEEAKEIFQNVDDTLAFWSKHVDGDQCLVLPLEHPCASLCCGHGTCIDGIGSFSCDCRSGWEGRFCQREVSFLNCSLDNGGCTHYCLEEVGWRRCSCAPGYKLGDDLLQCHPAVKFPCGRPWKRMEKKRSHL
T2 sequence (P04070 200-461, chain 2 of 2): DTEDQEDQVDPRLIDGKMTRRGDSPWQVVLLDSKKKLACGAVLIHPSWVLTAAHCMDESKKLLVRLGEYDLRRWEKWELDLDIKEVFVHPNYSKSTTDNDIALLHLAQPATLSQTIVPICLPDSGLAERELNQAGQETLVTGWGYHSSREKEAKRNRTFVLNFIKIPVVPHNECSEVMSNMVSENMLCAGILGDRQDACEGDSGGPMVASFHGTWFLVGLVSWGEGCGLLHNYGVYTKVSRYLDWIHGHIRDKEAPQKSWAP

T1 sequence (P04070 other isoform, or with tags, fused parts or gaps): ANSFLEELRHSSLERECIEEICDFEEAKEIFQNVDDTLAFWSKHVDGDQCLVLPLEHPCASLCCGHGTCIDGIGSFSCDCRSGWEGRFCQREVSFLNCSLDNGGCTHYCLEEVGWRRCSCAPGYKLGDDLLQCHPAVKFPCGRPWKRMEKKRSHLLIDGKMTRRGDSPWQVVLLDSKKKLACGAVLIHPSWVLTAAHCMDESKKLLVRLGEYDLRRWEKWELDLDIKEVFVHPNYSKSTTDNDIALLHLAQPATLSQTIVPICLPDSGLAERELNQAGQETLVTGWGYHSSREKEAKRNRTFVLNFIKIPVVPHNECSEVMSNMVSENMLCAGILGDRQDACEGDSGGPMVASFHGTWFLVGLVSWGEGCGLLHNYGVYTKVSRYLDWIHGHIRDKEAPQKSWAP

Row | Binder | binding result [1] | binding result [2]
1 | SR16983-R3-P4-A07 (VHH) VHH: QVQLVESGGGLVQAGGSLRLSCAASGRTFVGSYVMGWFRQAPGKEREFVAASSRSTGNTVYLDSVKGRFTVSRDDAKNTLYLQMNSLKPEDTAVYYCATRASINYNYAAWPYWGQGTQVTVSS | binds | no binding
2 | SR16983-R3-P3-C06 (VHH) VHH: QLQLVESGGGLVQPGGSLRLSCAASGFTFSTKWMYWVRQGPGKGLEWVSTIDASGGSTYYADSVKGRFTISRDNTEKKVYLQMNSLESADTAVYYCARSAGGQFRGRGTQVTVSS | binds | no binding
3 | SR16983-R3-P3-G05 (VHH) VHH: QLQLVESGGGLVQAGGSLRLSCAASGFTLDDYAIGWFRQAPGKEREGVSCIASSDGSTYYADSVKGRFTISTDNAKNTVYLQMNSLKPEDTAVYYCARGGLLLPKPELFDSWGQGTQVTVSS | binds | no binding
4 | SR16983-R3-P4-A05 (VHH) VHH: QLQLVESGGGLVQAGGSLRLSCAASGFTLDDYAIGWFRQAPGKEREGVSCIATSDGSTYYADSVKGRFTISSDAAKNTVYLQMDSLKPEDTAVYYCARGGLLLPKPELFDGWGQGTQVTVST | binds | no binding
5 | SR16983-R3-P3-A12 (VHH) VHH: QLQLVESGGGLVQPGGSLRLSCAVSGFTLDDYAIGWFRQAPGKEREGVSSIATSDGSTYYADSVKGRFTISSDNAKNTVYLQMNSLKPEDTAVYYCARGGLLLPRPELYEYWGQGTQVTVSS | binds | no binding
6 | SR16983-R3P2D09 (VHH) VHH: QVQLVESGGGLVQAGGSLRLSCAASGRTVGSYAMGWFRQAPGKEREFLAAFSRSTGNTVYADSVKGRFTISRDDAKNTLYLQMNSLKPEDTAVYYCAARASINYNYANWPYWGQGTQVTVSS | binds | no binding
7 | SR16983-R3P2G08 (VHH) VHH: QLQLVESGGGLVQAGGSMRLSCTASGSTVRVTAGGWYRQAPGNERELVADIDNGGSTTYADSVKGRFTISRDNAKNAVDLQMNSLKPEDTAVYRCFVIAIPDSAPRPRAYWGQGTQVTVSS | binds | no binding
8 | SR16983-R3P2H01 (VHH) VHH: QLQLVQSGGGLVQAGGSLRLSCTASGSTVRVTAGGWYRQTPGNERELVADIDNGGSTTYADSVKGRFTISRDNAKNAVDLQMNSLKPEDTAVYRCFVIAIPDSAPRPRAYWGQGTEVTVSS | – | no binding
9 | SR16983-R3P2H05 (VHH) VHH: QLQLVESGGGLVQPGGSLRLACAASGFSFDDYAIGWFRQAPGKEREGVSCITSDGSTYYADSVKGRFTISSDYAKNTVHLQMNSLKPEDTAVYYCARGGLLLPKPELFDDWGQGTQVTVSS | binds | no binding
10 | SR16983-R2-P3-F07 (VHH) VHH: QLQLVESGGGLVQAGGSLRLSCAASGTTFDMNSMGWYRQAPGFKRDLVATISIGGDTNYTDSVKGRFTISRDNAKNTVYMQMNSLKPEDTAVYYCNAERIWPNRRSFWGQGTQVTVSS | binds | no binding
11 | SR16983-R3-P5-D01 (VHH) VHH: QLQLVESGGGLVQAGGSLRLSCAASGTTFDMNSIGWYRQAPGKQRELVATISIGGSTNYADSVKGRFTISRGNAKNTVYMQMNSLKPEDTAVYYCNAERIWPNRRTFWGQGTQVTVSS | binds | no binding
12 | SR16983-R2-P2-G11 (VHH) VHH: QVQLVESGGGLVQAGGSLRLSCAASGTTFSFNYMGWYRQAPGNQRDLVARISSGGITNYADSVKGRFTISGDNAKNVVYLQMNSLKPEDTARYYCFYNGHLNKWGQGTQVTVSS | binds | no binding
13 | SR16983-R3-P2-G05 (VHH) VHH: QLQLVESGGGLVQTGGSLRLSCAASGTTFSFVYMGWYRQAPGNQRDLVARISSDGSTNYADSVKGRFTISGGNAKNTVYLQMNSLKPEDTARYYCFYNGHLNKWGQGTQVTVSS | binds | no binding
14 | SR16983-R3-P2-E09 (VHH) VHH: QLQLVESGGGLVQAGGSLRLSCAASGTTFSFNYMGWYRQAPGNQRDLVARISSGGSTNYADSVKGRFTISADNAKNTVYLQMNSLKPEDTARYTCFWNGYTNKWGQGTQVTVSS | binds | no binding
15 | SR16983-R3-P5-C03 (VHH) VHH: QLQLVESGGGLVQAGGSLRLSCAASGTTFSFVYMGWYRQAPGNQRELVARLSSDGSTNYADSVKGRFLISGDNAKNTVYLQMNSLKPEDTARYYCFYNGHLNKWGQGTQVTVSS | binds | no binding
16 | SR16983-R3-P2-B02 (VHH) VHH: QLQLVESGGGLVQAGGSLRLSCAASGTTFSFVYMGWYRQAPGNQRDLVARISSDGSTNYADSVKGRFTISGDNAKNIVYLQMNSLKPEDTARYYCFYNGHLNKWGQGTQVTVSS | binds | no binding
17 | SR16983-R3-P4-F06 (VHH) VHH: QLQLVESGGGLVQAGGSLRLSCEASRTTFSFNYMGWYRQAPGNQRDLVARISSGGITNYADSVKGRFTISGDNAKNTVYLQMNSLKPEDTARYYCFYNGHLNKWGQGTQVTVSS | binds | no binding
18 | SR16983-R2-P5-H07 (VHH) VHH: QVQLVESGGGLVQAGGSLRLSCAASGTTFSFVYMGWYRQAPGNQRELVARISSDGSTNYSDSVKGRFLISGANAKNTVYLQMNSLKPEDTARYYCFYNGHLNKWGQGTQVTVSS | binds | no binding
19 | SR16983-R3-P2-D12 (VHH) VHH: QLQLVESGGGLVQAGGSLRLSCAASGSTFNFNIMGWYRQVPGKQRELVAVINSGGSADYTEDVKGRFTISRDNAKSIMYLQMNSLKPEDTAVYYCNAKKVEPTLFTTTYWGQGTQVTVSS | binds | no binding
20 | SR16983-R3-P4-H10 (VHH) VHH: QVQLVESGGGLVQAGGSLRLSCAASGLTSSTYVMAWFRQAPGKEREFVSVIDSRGDTTYANSVKGRFTTSRDFGKNTVYLQMNSLQPEDTALYYCAARASPAYVARLYAYWGRGTQVTVSS | binds | no binding
21 | SR16983-R2-P2-A08 (VHH) VHH: QVQLVESGGGVVQAGGSLRLSCAASGLTSSTYVMAWFRQAPGKEREFVSVIDSRGDTTYAKSVKGRFSISRDNGKNAVYLQMNSLQPEDTALYYCAARASASYVARMYAYWGRGTQVTVSS | binds | no binding
22 | SR16983-R2-P4-G06 (VHH) VHH: EVQLVESGGGLVQAGGSLRLSCTTSGSTFSITAGGWYRQAPGKQRELVADIANDGSTTYADSVKGRFTISRDNAKNTVELQMSSLKLEDTAVYLCFVVGISDSTPRPRAYWGQGTQVTVSS | binds | no binding

Reference: patent US20250163183A1 (COAGULANT THERAPEUTICS, published 2025)
